Laboratory results as given in patent US20170137467A1 (CHROMOTEK, published 2017).
Square brackets hold non-standard residues; d marks the D form. GABA = NCCCC(=O)O

Assays:
Assay in all cases: positional peptide library pulldown on immobilised Nb, LC-MS of supernatant; signal ratio to control GFP-Nb (1 = not captured, near 0 = captured)
BC2T K4D = target: T1, BC2T K4D
T1 construct: positional scanning library member
T1 peptide: Ac-PDRDAAVSHWQQ-NH2
Procedure, shortened: (§1)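 Unbound peptide left in supernatant after 1 h pulldown in PBS/0.01% CHAPS measured by reversed-phase LC-MS (8–30% eluent B gradient, 20 min).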

BC2T K4W = target: T2, BC2T K4W
T2 construct: positional scanning library member
T2 peptide: Ac-PDRWAAVSHWQQ-NH2
Procedure, shortened: as §1

BC2T V7C(Abu) = target: T3, BC2T V7C(Abu) (also: Abu described as gamma-amino butyric acid)
T3 construct: positional scanning library member
T3 peptide: Ac-PDRKAA[GABA]SHWQQ-NH2
Procedure, shortened: as §1

BC2T P1C(Abu) = target: T4, BC2T P1C(Abu) (SMILES …)
T4 construct: positional scanning library member
T4 peptide: Ac-[GABA]DRKAAVSHWQQ-NH2
Procedure, shortened: as §1

BC2T A6R = target: T5, BC2T A6R
T5 construct: positional scanning library member
T5 peptide: Ac-PDRKARVSHWQQ-NH2
Procedure, shortened: as §1

BC2T D2N = target: T6, BC2T D2N
T6 construct: positional scanning library member
T6 peptide: Ac-PNRKAAVSHWQQ-NH2
Procedure, shortened: as §1

BC2T V7T = target: T7, BC2T V7T
T7 construct: positional scanning library member
T7 peptide: Ac-PDRKAATSHWQQ-NH2
Procedure, shortened: as §1

BC2T A6N = target: T8, BC2T A6N
T8 construct: positional scanning library member
T8 peptide: Ac-PDRKANVSHWQQ-NH2
Procedure, shortened: as §1

BC2T V7F = target: T9, BC2T V7F
T9 construct: positional scanning library member
T9 peptide: Ac-PDRKAAFSHWQQ-NH2
Procedure, shortened: as §1

BC2T P1K = target: T10, BC2T P1K
T10 construct: positional scanning library member
T10 peptide: Ac-KDRKAAVSHWQQ-NH2
Procedure, shortened: as §1

BC2T R3D = target: T11, BC2T R3D
T11 construct: positional scanning library member
T11 peptide: Ac-PDDKAAVSHWQQ-NH2
Procedure, shortened: as §1

BC2T K4R = target: T12, BC2T K4R
T12 construct: positional scanning library member
T12 peptide: Ac-PDRRAAVSHWQQ-NH2
Procedure, shortened: as §1

BC2T P1Y = target: T13, BC2T P1Y
T13 construct: positional scanning library member
T13 peptide: Ac-YDRKAAVSHWQQ-NH2
Procedure, shortened: as §1

BC2T R3W = target: T14, BC2T R3W
T14 construct: positional scanning library member
T14 peptide: Ac-PDWKAAVSHWQQ-NH2
Procedure, shortened: as §1

BC2T D2W = target: T15, BC2T D2W
T15 construct: positional scanning library member
T15 peptide: Ac-PWRKAAVSHWQQ-NH2
Procedure, shortened: as §1

B1: BC2-NbR106E (VHH)
VHH: QVQLVESGGGLVQPGGSLTLSCTASGFTLDHYDIGWFRQAPGKEREGVSCINNSDDDTYYADSVKGRFTIFMDNAKDTVYLQMNSLKPEDTAIYYCAEARGCKRGEYEYDFWGQGTQVTVSS
notes: headlock mutant of BC2-Nb; immobilised on beads in this assay
Question: Which ratio (BC2T K4D) does the source give for B1 here?
Answer: The ratio was 1.

Question: What about the ratio (BC2T K4W) of the same binder?
Answer: The ratio was 0.7.

Question: And the ratio (BC2T V7C(Abu))?
Answer: Its ratio is 0.3.

Question: And the ratio (BC2T P1C(Abu))?
Answer: Its ratio is 0.2.

Question: What about the ratio (BC2T A6R) of the same binder?
Answer: Its ratio is 0.7.

Question: And the ratio (BC2T D2N)?
Answer: The ratio was 0.2.

Question: And the ratio (BC2T V7T)?
Answer: Its ratio is 0.2.

Question: What about the ratio (BC2T A6N) of the same binder?
Answer: The ratio was 1.

Question: And the ratio (BC2T V7F)?
Answer: The ratio was 0.2.

Question: And the ratio (BC2T P1K)?
Answer: The ratio was 0.3.

Question: And the ratio (BC2T R3D)?
Answer: Its ratio is 1.

Question: And the ratio (BC2T K4R)?
Answer: The ratio was 0.1.

Question: And the ratio (BC2T P1Y)?
Answer: The ratio was 0.2.

Question: What about the ratio (BC2T R3W) of the same binder?
Answer: The ratio was 1.1.

Question: What about the ratio (BC2T D2W) of the same binder?
Answer: The ratio was 0.1.
